# Measurements reported in patent US20190016799A1 (HANGZHOU SUMGEN BIOTECHNOLOGY, published 2019).
# Where two headings read alike, the source gives them in different places.
# T1: ICOS (UniProt Q9Y6W8 21-140, limits assumed)
# T1 construct: Bought protein
# T1 sequence (looked up): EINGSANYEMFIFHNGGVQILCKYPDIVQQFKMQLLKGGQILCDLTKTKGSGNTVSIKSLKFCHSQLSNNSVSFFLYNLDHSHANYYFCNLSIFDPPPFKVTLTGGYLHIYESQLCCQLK
# Assays:
# [1] = biological target: T2, hPD1-Fc (fusion protein of human PD-1 protein extracellular segment-human IgG1 Fc fragment) (human, UniProt Q15116 25-170); assay: ELISA, plate coated with hPD1-Fc 1 ug/ml, detection with GAH-Fab-HRP, OD450
# T2 construct: extracellular domain; Expressed in CHO-K1 cells; also called hPD1-FC-Biotin (biotin-labeled form); not shown: human IgG1 Fc fragment
# T2 sequence (Q15116 25-170): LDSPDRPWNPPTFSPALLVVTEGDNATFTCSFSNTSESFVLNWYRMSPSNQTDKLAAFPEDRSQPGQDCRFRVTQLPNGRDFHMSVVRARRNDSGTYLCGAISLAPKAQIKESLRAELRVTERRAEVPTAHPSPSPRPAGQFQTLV
# [2] = biological target: T2, hPD1-Fc (fusion protein of human PD-1 …); assay: SPR (BIACORE), antibody captured by anti-human IgG-Fab, hPD1-FC as analyte at 3.125-100 nM
# Description: (§1) The antibody affinity was analyzed using BIACORE Biomacromolecular Interaction Device (GE).
# monkey PD1 = biological target: T3, monkey PD1 (monkey); assay: ELISA, plate coated with monkey PD1 1 ug/ml, detection with GAH-Fab-HRP, OD450
# T3 construct: Bought protein; also called monkey PD1 protein; monkey PD1 antigen
# ICOS = biological target: T1, ICOS; assay: ELISA, plate coated with ICOS 1 ug/ml, detection with GAH-Fab-HRP, OD450; antibody concentration not shown on the sheet
# BTLA = biological target: T4, BTLA (UniProt Q7Z6A9 31-157, limits assumed); assay: ELISA, plate coated with BTLA 1 ug/ml, detection with GAH-Fab-HRP, OD450; antibody concentration not shown on the sheet
# T4 construct: Bought protein
# [3] = biological target: T2, hPD1-Fc (fusion protein of human PD-1 …); assay: ELISA, plate coated with hPD1-Fc 1 ug/ml, detection with GAH-Fab-HRP, OD450; remark: listed apart in the source
# [4] = biological target: T2, hPD1-Fc (fusion protein of human PD-1 …); assay: competition ELISA, plate coated with hPD1-FC 1 µg/mL, competitor BMS01-Biotin 0.5 µg/mL, detection with HRP-avidin, OD450
# Description: (§2) The plate was washed 3 times with a washing solution repeatedly, added with HRP-labeled avidin, and placed in the dark at room temperature (20±5° C.) for 45 minutes. The plate was washed 5 times with a washing solution repeatedly, and patted on a drying paper to dry out the residual droplets as possible; added with 100 μl of TMB to each well, and placed in the dark for 3 min at room temperature (20±5° C.); 100 μl of 2N H₂SO₄ stop solution was added to each well to stop the substrate reaction, and the microplate reader was read at 450 nm for the OD value.
# CD28 = biological target: T5, CD28 (UniProt P10747 19-152); assay: ELISA, plate coated with CD28 1 ug/ml, detection with GAH-Fab-HRP, OD450; antibody concentration not shown on the sheet
# T5 construct: Bought protein
# [5] = biological target: T2, hPD1-Fc (fusion protein of human PD-1 …); assay: SPR (BIACORE), antibody captured by anti-human IgG-Fab on the chip, hPD1-FC as mobile phase at 3.125-100 nM; the text's value is tenfold above Table 1
# Description: as §1
# [6] = biological target: T2, hPD1-Fc (fusion protein of human PD-1 …); assay: blocking ELISA: hPDL1 coated at 1 ug/mL, hPD1-FC-Biotin 5 ug/mL, antibody titrated from 500 ug/mL
# Description: as §2
# CTLA4 = biological target: T6, CTLA4 (UniProt P16410 36-162); assay: ELISA, plate coated with CTLA4 1 ug/ml, detection with GAH-Fab-HRP, OD450; antibody concentration not shown on the sheet
# T6 construct: Bought protein
# T6 sequence (P16410 36-162 limits assumed): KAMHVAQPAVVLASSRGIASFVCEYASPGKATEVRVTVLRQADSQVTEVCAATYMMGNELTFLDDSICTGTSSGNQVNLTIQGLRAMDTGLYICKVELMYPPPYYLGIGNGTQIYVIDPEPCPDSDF
binder,measurement,setting,value
"SG001 antibody (antibody, human IgG1, kappa, V domains shown) VH: QVQLVESGGGVVQPGRSLRLTCKASGLTFSSSGMHWVRQAPGKGLEWVAVIWYDGSKRYYADSVKGRFTISRDNSKNTLFLQMNSLRAEDTAVYYCATNNDYWGQGTLVTVSS VL: EIVLTQSPATLSLSPGERATLSCRASQSVSSYLAWYQQKPGQAPRLLIYTASNRATGIPARFSGSGSGTDFTLTISSLEPEDFAVYYCQQYSNWPRTFGQGTKVEIKR",EC50 (read off the curve),[1],~0.05 µg/mL
same,Kd,[2],0.215 nM
same,koff,[2],6.85e-05 s⁻¹
same,kon,[2],318000 M⁻¹ s⁻¹
same,EC50 (read off the curve),monkey PD1,~0.03 µg/mL
same,binding result,ICOS,no binding
same,binding result,BTLA,no binding
same,EC50 (read off the curve),[3],~0.03 µg/mL
same,IC50 (read off the curve),[4],~30 µg/mL
same,binding result,CD28,no binding
same,Kd,[5],0.215 nM
same,IC50,[6],1.47 µg/mL
same,binding result,CTLA4,no binding
